Variants at the floor of the assay were thinned out.
Columns and labels:
biotinyl-Phe-oxazolone = experiment: self-aminoacylation, catalytic enhancement (BFO) (fold over background); higher = more active; k-Seq, kA / k0A0; sequences stand for … in GGGAAUGGAUCCACAUCUACGAAUUC…UUCACUGCAGACUUGACGAAGCUG
In short: (§1)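 Mutagenized RNA pools with a 21-nt variable region (0.43 μM) were reacted with each biotinyl-aminoacyl-oxazolone at 2–1250 μM for 90 minutes at room temperature, in 50 μL HEPES/NaCl/KCl/MgCl2/CaCl2 buffer containing 5% acetonitrile at pH 6.9–7.0. RNA captured on streptavidin was quantified by triplicate qPCR and by Illumina sequencing. The fraction reacted for each sequence was fit to a pseudo-first-order model with bootstrapping, and catalytic enhancement is the median kA divided by the uncatalyzed rate, taken as the low-activity peak of a bimodal Gaussian fit.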

biotinyl-Ile-oxazolone = experiment: self-aminoacylation, catalytic enhancement (BIO) (fold over background); higher = more active; k-Seq, kA / k0A0; sequences stand for … in GGGAAUGGAUCCACAUCUACGAAUUC…UUCACUGCAGACUUGACGAAGCUG
In short: as §1

biotinyl-Met-oxazolone = experiment: self-aminoacylation, catalytic enhancement (BMO) (fold over background); higher = more active; k-Seq, kA / k0A0; sequences stand for … in GGGAAUGGAUCCACAUCUACGAAUUC…UUCACUGCAGACUUGACGAAGCUG
In short: as §1

biotinyl-Val-oxazolone = experiment: self-aminoacylation, catalytic enhancement (BVO) (fold over background); higher = more active; k-Seq, kA / k0A0; sequences stand for … in GGGAAUGGAUCCACAUCUACGAAUUC…UUCACUGCAGACUUGACGAAGCUG
In short: as §1

biotinyl-Leu-oxazolone = experiment: self-aminoacylation, catalytic enhancement (BLO) (fold over background); higher = more active; k-Seq, kA / k0A0; sequences stand for … in GGGAAUGGAUCCACAUCUACGAAUUC…UUCACUGCAGACUUGACGAAGCUG
In short: as §1

biotinyl-Trp-oxazolone = experiment: self-aminoacylation, catalytic enhancement (BWO) (fold over background); higher = more active; k-Seq, kA / k0A0; sequences stand for … in GGGAAUGGAUCCACAUCUACGAAUUC…UUCACUGCAGACUUGACGAAGCUG
In short: as §1

| Sequence | self-aminoacylation (biotinyl-Phe-oxazolone) | self-aminoacylation (biotinyl-Ile-oxazolone) | self-aminoacylation (biotinyl-Met-oxazolone) | self-aminoacylation (biotinyl-Val-oxazolone) | self-aminoacylation (biotinyl-Leu-oxazolone) | self-aminoacylation (biotinyl-Trp-oxazolone) |
| --- | --- | --- | --- | --- | --- | --- |
| AUUACCCUGCUCAUCGACUGA [Fam2.1 aminoacylation ribozyme variant] | 0.34 | 0.856 | 0.687 | 0.82 | 0.475 | 0.534 |
| AUUACCCUGCUCAUCGAGAGA [Fam2.1 aminoacylation ribozyme variant] | 0.77 | 0.834 | 0.805 | 0.975 | 0.702 | 0.698 |
| AUUACCCUGCUCAUCGAGUGU [Fam2.1 aminoacylation ribozyme variant] | 1.08 | 0.991 | 1 | 0.78 | 0.916 | 1.36 |
| AUUACCCUGGACAUAGAGUGA [Fam2.1 aminoacylation ribozyme variant] | 100 | 6.45 | 15.5 | 6.12 | 15 | 15.6 |
| AUUACCCUGGACAUCGAGCGA [Fam2.1 aminoacylation ribozyme variant] | 1.24 | 1.24 | 1.45 | 1.07 | 1.26 | 1.34 |
| AUUACCCUGGACAUCGAGUGU [Fam2.1 aminoacylation ribozyme variant] | 5.95 | 1.51 | 3.35 | 2.66 | 3.35 | 4.38 |
| AUUACCCUGGCCACCGAGUGA [Fam2.1 aminoacylation ribozyme variant] | 35.6 | 2.92 | 4.99 | 3.34 | 5.59 | 3.89 |
| AUUACCCUGGCCAUAGAGUGA [Fam2.1 aminoacylation ribozyme variant] | 5.34 | 2.6 | 4.15 | 2.51 | 4.73 | 6.32 |
| AUUACCCUGGCCAUCAAGUGA [Fam2.1 aminoacylation ribozyme variant] | 1.1 | 0.983 | 1.07 | 1.01 | 0.968 | 1.67 |
| AUUACCCUGGCCAUCGAGUGA [Fam2.1 aminoacylation ribozyme variant] | 11.7 | 2.05 | 3.27 | 2.24 | 3.27 | 3.94 |
| AUUACCCUGGCCAUCGAGUGU [Fam2.1 aminoacylation ribozyme variant] | 2.1 | 1.42 | 3.06 | 1.93 | 2.04 | 2.51 |
| AUUACCCUGGCCAUCGAGUUA [Fam2.1 aminoacylation ribozyme variant] | 0.675 | 1.38 | 1.26 | 1.12 | 1.28 | 0.729 |
| AUUACCCUGGCUAUCGAGUGA [Fam2.1 aminoacylation ribozyme variant] | 4.17 | 1.54 | 2.14 | 1.82 | 2.35 | 2.49 |
| AUUACCCUGGGAAUCGAGUGA [Fam2.1 aminoacylation ribozyme variant] | 26.8 | 2.78 | 5.72 | 3.29 | 5.93 | 4.59 |
| AUUACCCUGGGCAUCGGGUGA [Fam2.1 aminoacylation ribozyme variant] | 65.7 | 5.62 | 10.4 | 6.68 | 11.5 | 10.8 |
| AUUACCCUGGGCAUUGAGUGA [Fam2.1 aminoacylation ribozyme variant] | 58.7 | 4.38 | 9.32 | 4.23 | 11.3 | 11.9 |
| AUUACCCUGGGCGUCGAGUGA [Fam2.1 aminoacylation ribozyme variant] | 1.06 | 1.04 | 1.73 | 1.44 | 1.3 | 1.04 |
| AUUACCCUGGGUAUCGAGUGA [Fam2.1 aminoacylation ribozyme variant] | 57.8 | 4.51 | 9.85 | 4.62 | 10.9 | 11.2 |
| AUUACCCUGGUAAGCGAGUGA [Fam2.1 aminoacylation ribozyme variant] | 42.1 | 2.82 | 5.79 | 3.21 | 4.55 | 6.48 |
| AUUACCCUGGUAAUAGAGUGA [Fam2.1 aminoacylation ribozyme variant] | 125 | 6.19 | 16.2 | 6.61 | 16.1 | 17.9 |
| AUUACCCUGGUAAUCGAGUCA [Fam2.1 aminoacylation ribozyme variant] | 0.569 | 0.825 | 0.902 | 0.838 | 0.783 | 0.473 |
| AUUACCCUGGUAAUCGAGUGG [Fam2.1 aminoacylation ribozyme variant] | 2.83 | 1.38 | 2.85 | 1.31 | 2.79 | 2.9 |
| AUUACCCUGGUAUUCGAGUGA [Fam2.1 aminoacylation ribozyme variant] | 42.4 | 3.56 | 7.43 | 3.65 | 7.89 | 9.54 |
| AUUACCCUGGUCAACGAGUAA [Fam2.1 aminoacylation ribozyme variant] | 1.01 | 1.29 | 1.19 | 1.44 | 1.53 | 0.972 |
| AUUACCCUGGUCAACGAGUUA [Fam2.1 aminoacylation ribozyme variant] | 0.836 | 0.971 | 1.26 | 0.947 | 0.662 | 0.529 |
| AUUACCCUGGUCACCAAGUGA [Fam2.1 aminoacylation ribozyme variant] | 34.3 | 3.47 | 6.45 | 3.32 | 6.54 | 7.7 |

| Sequence | self-aminoacylation (biotinyl-Phe-oxazolone) | self-aminoacylation (biotinyl-Ile-oxazolone) | self-aminoacylation (biotinyl-Met-oxazolone) | self-aminoacylation (biotinyl-Val-oxazolone) | self-aminoacylation (biotinyl-Leu-oxazolone) | self-aminoacylation (biotinyl-Trp-oxazolone) |
| --- | --- | --- | --- | --- | --- | --- |
| AUUACCCUGGUCACCCAGUGA [Fam2.1 aminoacylation ribozyme variant] | 46.1 | 4.12 | 7.54 | 3.6 | 6.87 | 8.27 |
| AUUACCCUGGUCACCGAGUUA [Fam2.1 aminoacylation ribozyme variant] | 1.81 | 1.64 | 1.52 | 1.75 | 1.26 | 2.34 |
| AUUACCCUGGUCACCGCGUGA [Fam2.1 aminoacylation ribozyme variant] | 98.1 | 6.07 | 14.1 | 7.05 | 16.7 | 16.7 |
| AUUACCCUGGUCAGCGAAUGA [Fam2.1 aminoacylation ribozyme variant] | 0.631 | 1.05 | 1.43 | 1.31 | 1.22 | 1.38 |
| AUUACCCUGGUCAGCGGGUGA [Fam2.1 aminoacylation ribozyme variant] | 68.2 | 5.3 | 9.2 | 6.36 | 10.1 | 10.1 |
| AUUACCCUGGUCAGCGUGUGA [Fam2.1 aminoacylation ribozyme variant] | 30.9 | 2.79 | 5.28 | 3.59 | 5.25 | 6.56 |
| AUUACCCUGGUCAUAGACUGA [Fam2.1 aminoacylation ribozyme variant] | 0.776 | 0.874 | 0.586 | 0.991 | 0.739 | 0.537 |
| AUUACCCUGGUCAUAGAGAGA [Fam2.1 aminoacylation ribozyme variant] | 0.605 | 0.947 | 0.983 | 0.717 | 0.798 | 0.77 |
| AUUACCCUGGUCAUAGAGUUA [Fam2.1 aminoacylation ribozyme variant] | 0.667 | 1.25 | 1.39 | 1.1 | 0.921 | 0.786 |
| AUUACCCUGGUCAUCAACUGA [Fam2.1 aminoacylation ribozyme variant] | 0.556 | 0.789 | 0.667 | 1.13 | 0.851 | 0.571 |
| AUUACCCUGGUCAUCAAGGGA [Fam2.1 aminoacylation ribozyme variant] | 1.11 | 0.87 | 0.807 | 1.13 | 0.752 | 1.2 |
| AUUACCCUGGUCAUCAAGUGC [Fam2.1 aminoacylation ribozyme variant] | 0.434 | 0.689 | 0.691 | 0.795 | 0.567 | 0.302 |
| AUUACCCUGGUCAUCAAGUUA [Fam2.1 aminoacylation ribozyme variant] | 0.737 | 0.676 | 0.684 | 0.681 | 0.646 | 0.328 |
| AUUACCCUGGUCAUCACGUGA [Fam2.1 aminoacylation ribozyme variant] | 52.4 | 3.08 | 8.87 | 4.39 | 7.86 | 9.65 |
| AUUACCCUGGUCAUCAUGUGA [Fam2.1 aminoacylation ribozyme variant] | 26.2 | 2.67 | 6.44 | 3.17 | 6.36 | 6.97 |
| AUUACCCUGGUCAUCCAGUGA [Fam2.1 aminoacylation ribozyme variant] | 28.1 | 3.41 | 5.67 | 3.42 | 5.76 | 6.71 |
| AUUACCCUGGUCAUCCAGUGG [Fam2.1 aminoacylation ribozyme variant] | 1.42 | 1.22 | 1.84 | 1.3 | 1.68 | 1.28 |
| AUUACCCUGGUCAUCCAGUUA [Fam2.1 aminoacylation ribozyme variant] | 0.726 | 0.875 | 0.914 | 1.08 | 0.855 | 0.433 |
| AUUACCCUGGUCAUCGAAUGA [Fam2.1 aminoacylation ribozyme variant] | 0.974 | 1 | 1.07 | 1.06 | 1.08 | 0.908 |
| AUUACCCUGGUCAUCGAAUGC [Fam2.1 aminoacylation ribozyme variant] | 0.567 | 1.04 | 0.827 | 0.68 | 0.723 | 0.726 |
| AUUACCCUGGUCAUCGACUGC [Fam2.1 aminoacylation ribozyme variant] | 0.441 | 0.701 | 0.555 | 0.722 | 0.839 | 0.371 |
| AUUACCCUGGUCAUCGAGCGG [Fam2.1 aminoacylation ribozyme variant] | 1.12 | 1.95 | 2.38 | 1.8 | 2.9 | 1.61 |
| AUUACCCUGGUCAUCGAGGAA [Fam2.1 aminoacylation ribozyme variant] | 8.38 | 2.3 | 5.91 | 2.44 | 5.25 | 4.88 |
| AUUACCCUGGUCAUCGAGGGC [Fam2.1 aminoacylation ribozyme variant] | 1.09 | 1.31 | 1.77 | 1.24 | 1.56 | 1.12 |
| AUUACCCUGGUCAUCGAGGUA [Fam2.1 aminoacylation ribozyme variant] | 10.2 | 2.38 | 7.24 | 3.16 | 5.68 | 5.45 |
